Results published in patent publication US20190169308A1 (ALLIGATOR BIOSCIENCE, published 2019).

T1: recombinant human OX40 (R&D #1493-CD) (human, UniProt P43489 29-216, limits assumed)
T1 sequence (looked up): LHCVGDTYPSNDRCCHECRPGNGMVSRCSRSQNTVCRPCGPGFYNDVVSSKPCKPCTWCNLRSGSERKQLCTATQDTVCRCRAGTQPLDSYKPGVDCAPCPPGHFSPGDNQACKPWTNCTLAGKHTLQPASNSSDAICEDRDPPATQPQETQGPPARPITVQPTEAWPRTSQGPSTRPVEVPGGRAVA

B1: 1214/1215 (antibody, V domains shown)
VH: EVQLLESGGGLVQPGGSLRLSCAASGFTFSSYAMSWVRQAPGKGLEWVSSIGSGGGYTGYADSVKGRFTISRDNSKNTLYLQMNSLRAEDTAVYYCARVGHPFDYWGQGTLVTVSS
VL: DIQMTQSPSSLSASVGDRVTITCRASQSISSYLNWYQQKPGKAPKLLIYAASSLQSGVPSRFSGSGSGTDFTLTISSLQPEDFATYYCQQDAYPHTFGQGTKLEIK
B2: 1202/1203 (antibody, V domains shown)
VH: EVQLLESGGGLVQPGGSLRLSCAASGFTFYGSSMSWVRQAPGKGLEWVSSIYYGSSGTYYADSVKGRFTISRDNSKNTLYLQMNSLRAEDTAVYYCARSYYGYFDYWGQGTLVTVSS
VL: DIQMTQSPSSLSASVGDRVTITCRASQSISSYLNWYQQKPGKAPKLLIYAASSLQSGVPSRFSGSGSGTDFTLTISSLQPEDFATYYCQQYYTVVPFTFGQGTKLEIK
B3: 1618/1619 (antibody, V domains shown)
VH: EVQLLESGGGLVQPGGSLRLSCAASGFTFSYGSMYWVRQAPGKGLEWVSSISSGSGSTYYADSVKGRFTISRDNSKNTLYLQMNSLRAEDTAVYYCARSSYYGSYYSIDYWGQGTLVTVSS
VL: DIQMTQSPSSLSASVGDRVTITCRASQSISSYLNWYQQKPGKAPKLLIYAASSLQSGVPSRFSGSGSGTDFTLTISSLQPEDFATYYCQQYYDNLPTFGQGTKLEIK

Experiments:
[1] = molecular target: T1, recombinant human OX40 (R&D #1493-CD); assay: ELISA, coated OX40
Protocol: (§1) ELISA plates (Greiner #655074) were coated with 50 μl/well of recombinant human OX40 (R&D #1493-CD), CD40-Fc (Ancell #504-820) or CD137 (R&D #838-4B) diluted to a final concentration of 0.5 μg/ml in PBS for 1h at 37° C. or overnight at 4° C. Plates were washed with PBS+0.05% TWEEN20 (PBST), followed by block with PBST+1% bovine serum albumin (BSA). Antibody samples were prepared as serial 1/10 dilutions from 10-0.01 μg/ml in PBST+1% BSA and incubated for 1 h in room temperature, followed by detection using a horse radish peroxidase-conjugated anti-human kappa light chain antibody (AbD Serotec #STAR127P) and developed using SuperSignal ELISA Pico Chemiluminescent substrate (Pierce ThermoScientific #37069).

[2] = molecular target: T2, CD40-Fc (Ancell #504-820) (human, UniProt P25942 21-193); assay: ELISA, coated CD40-Fc
T2 construct: not shown: Fc part, bought reagent, not described
Protocol: as §1

[3] = molecular target: T3, human/mouse CD137 chimera 1552; assay: flow cytometry, 293-F cells with CD137 chimera; Exp 2
T3 construct: on transfected FreeStyle 293-F cells
Protocol: (§2) The ability of each antibody to bind to a panel of human/mouse CD137 chimeras expressed on the surface of transfected cells was analyzed by flow cytometry.
(§3) The chimeras were designed by exchanging domains or modules of the human CD137 with the corresponding mouse domain (FIG. 7). Genes of CD137 human/mouse chimeras were synthesized (GenScript) and constructs cloned into pcDNA3.1 vector (Invitrogen) and transiently transfected into FreeStyle 293-F cells (Invitrogen). The transfected cells were incubated with CD137 antibodies and control antibodies, followed by incubation with anti-human IgG-PE (Jackson Immunoresearch) for detection and analyzed with FACS Verse (BD Biosciences). Binding to the different chimeric constructs was calculated as relative MFI compared to the binding of the isotype control, followed by normalization to the full-length human CD137 construct to minimize the effect of affinity differences between individual antibodies.

[4] = molecular target: T4, human/mouse CD137 chimera 1550; assay: as above
T4 construct: on transfected FreeStyle 293-F cells
Protocol: as §2, §3

[5] = molecular target: T5, human/mouse CD137 chimera 1554; assay: as above
T5 construct: on transfected FreeStyle 293-F cells
Protocol: as §2, §3

[6] = molecular target: T6, human/mouse CD137 chimera 1553; assay: as above
T6 construct: on transfected FreeStyle 293-F cells
Protocol: as §2, §3

[7] = molecular target: T7, human/mouse CD137 chimera 1555; assay: as above
T7 construct: on transfected FreeStyle 293-F cells
Protocol: as §2, §3

[8] = molecular target: T8, human/mouse CD137 chimera 1551; assay: as above
T8 construct: on transfected FreeStyle 293-F cells
Protocol: as §2, §3

[9] = molecular target: T3, human/mouse CD137 chimera 1552; assay: flow cytometry, 293-F cells with CD137 chimera; Exp 1
Protocol: as §2, §3

[10] = molecular target: T4, human/mouse CD137 chimera 1550; assay: as above
Protocol: as §2, §3

[11] = molecular target: T5, human/mouse CD137 chimera 1554; assay: as above
Protocol: as §2, §3

[12] = molecular target: T6, human/mouse CD137 chimera 1553; assay: as above
Protocol: as §2, §3

[13] = molecular target: T7, human/mouse CD137 chimera 1555; assay: as above
Protocol: as §2, §3

[14] = molecular target: T8, human/mouse CD137 chimera 1551; assay: as above
Protocol: as §2, §3

[15] = molecular target: T9, recombinant human CD137-Fc (R&D #838-4B) (human, UniProt Q07011 24-186); assay: ELISA, coated CD137 (R&D #838-4B)
T9 construct: bought; also called CD137 (R&D #838-4B); not shown: Fc part, bought reagent, not described

[16] = molecular target: T10, cynomolgus CD137 on transfected CHO cells (cynomolgus; human); assay: flow cytometry, CD137-transfected CHO cells
T10 construct: extracellular domain;domain: transmembrane and intracellular part; also called CHO-cyCD137; CHOcynoCD137
Protocol: (§4) Binding and EC50 was determined using flow cytometric analysis of CHO cells transfected with human CD137, cynomolgus CD137 or empty vector. The extracellular part of human or cynomolgus CD137 was fused to the transmembrane and intracellular part of human CD40 and cloned into pcDNA3.1. The vector was subsequently stably transfected into CHO cells. […] CD137-transfected and empty vector-transfected cells were incubated with CD137 antibodies for at least 1h at 4° C. to saturate the binding. In order to minimize antibody internalization, 0.05% sodium azide was used in the incubation buffer and all work was performed on ice. […] Directly after staining the cells were fixed with a paraformaldehyde solution (10x concentrate BD CellFIX, BD biosciences #340181). Cells were analyzed by flow cytometry using FACSVerse (BD Biosciences). The median fluorescence intensity (MFI) for each sample was determined and the dose response data was analysed using Graph Pad Prism.
(§5) MFI data was normalized for each antibody, where 0% is defined as the lowest value and 100% is the highest value in the dose titration for each antibody.

[17] = molecular target: T3, human/mouse CD137 chimera 1552; assay: flow cytometry, 293-F cells with CD137 chimera
Protocol: as §2, §3

[18] = molecular target: T4, human/mouse CD137 chimera 1550; assay: flow cytometry, 293-F cells with CD137 chimera
Protocol: as §2, §3

[19] = molecular target: T5, human/mouse CD137 chimera 1554; assay: flow cytometry, 293-F cells with CD137 chimera
Protocol: as §2, §3

[20] = molecular target: T6, human/mouse CD137 chimera 1553; assay: flow cytometry, 293-F cells with CD137 chimera
Protocol: as §2, §3

[21] = molecular target: T7, human/mouse CD137 chimera 1555; assay: flow cytometry, 293-F cells with CD137 chimera
Protocol: as §2, §3

[22] = molecular target: T8, human/mouse CD137 chimera 1551; assay: flow cytometry, 293-F cells with CD137 chimera
Protocol: as §2, §3

[23] = molecular target: T9, recombinant human CD137-Fc (R&D #838-4B); assay: ELISA, coated CD137-Fc
Protocol: (§6) Binding of CD137 antibodies to recombinant human CD137 was determined by sandwich ELISA. Briefly, ELISA plates (Greiner #655074) coated with recombinant human CD137-Fc (R&D #838-4B) were incubated with serial dilutions of the various CD137 antibodies to be investigated. CD137 antibodies were detected using HRP-conjugated goat-anti-human kappa light chain (AbD Serotec #STAR127P) and developed with SuperSignal ELISA Pico Chemiluminescent substrate (Pierce #37069). EC50 values of the various antibodies were determined in 2-6 separate experiments.

[24] = molecular target: T11, human CD137 on transfected CHO cells (human, UniProt Q07011 24-186; P25942 194-277, limits assumed); assay: flow cytometry, CHO-huCD137; 95% CI of EC50
T11 construct: extracellular domain;domain: transmembrane and intracellular part; also called CHO-huCD137; CHOhCD137
Protocol: as §4, §5

[25] = molecular target: T9, recombinant human CD137-Fc (R&D #838-4B); assay: ELISA, coated CD137-Fc; remark: listed apart in the source
Protocol: as §6

[26] = molecular target: T10, cynomolgus CD137 on transfected CHO …; assay: flow cytometry, CHO-cyCD137; 95% CI of EC50
Protocol: as §4, §5

[27] = molecular target: Human CD137 (R&D systems) (human, UniProt Q07011 24-186, limits assumed); assay: SPR Biacore, amine-coupled CD137, mAb injected (bivalent)
Protocol: Human CD137 (R&D systems) was immobilized to the Biacore™ sensor chip, CMS, using conventional amine coupling. The tested antibody and control (serially diluted 1/2 10-0.63 nM) were analyzed for binding in HBS-P (GE, #BR-1003-68) at a flow rate of […]. The association was followed for 5 minutes and the dissociation for 15 minutes. Regeneration was performed twice using 10 mM Glycine pH 1.7 for 30 seconds. The kinetic parameters and the affinity constants were calculated using 1:1 Langmuir model.

[28] = molecular target: T2, CD40-Fc (Ancell #504-820); assay: ELISA, coated CD40-Fc; coated CD40-Fc
Protocol: as §1

[29] = molecular target: T12, full-length human CD137 construct 1030 (human, UniProt Q07011 24-255); assay: flow cytometry, 293-F cells with full-length CD137 (reference of the normalization)
T12 construct: whole, on cells; on transfected FreeStyle 293-F cells; also called Full-length CD137
Protocol: as §2, §3

biotinylated CD137 [30] = molecular target: T13, biotinylated CD137 (UniProt Q07011 24-186, limits assumed, biotinylated); assay: SPR MASS-1, biotinylated antigen on streptavidin chip, parental mAb (same value as printed at r8c7, repeated in the row of 1618-1210)
biotinylated CD137 [31] = molecular target: T13, biotinylated CD137; assay: SPR MASS-1, biotinylated antigen on streptavidin chip, parental mAb

T10 sequence (P25942 other isoform, or with tags, fused parts or gaps): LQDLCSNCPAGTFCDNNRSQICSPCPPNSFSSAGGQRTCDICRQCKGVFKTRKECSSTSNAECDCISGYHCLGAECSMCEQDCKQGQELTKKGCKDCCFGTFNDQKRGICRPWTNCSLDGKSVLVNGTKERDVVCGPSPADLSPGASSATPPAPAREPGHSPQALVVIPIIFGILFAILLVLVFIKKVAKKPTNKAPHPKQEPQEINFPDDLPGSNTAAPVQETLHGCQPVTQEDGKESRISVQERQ
T2 sequence (P25942 21-193 limits assumed): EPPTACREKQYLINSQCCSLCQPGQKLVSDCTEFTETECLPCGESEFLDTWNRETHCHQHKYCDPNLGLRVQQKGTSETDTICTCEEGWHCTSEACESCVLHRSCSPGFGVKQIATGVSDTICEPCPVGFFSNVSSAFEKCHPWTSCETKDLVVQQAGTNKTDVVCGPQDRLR
Human CD137 (R&D systems), sequence (Q07011 24-186 limits assumed): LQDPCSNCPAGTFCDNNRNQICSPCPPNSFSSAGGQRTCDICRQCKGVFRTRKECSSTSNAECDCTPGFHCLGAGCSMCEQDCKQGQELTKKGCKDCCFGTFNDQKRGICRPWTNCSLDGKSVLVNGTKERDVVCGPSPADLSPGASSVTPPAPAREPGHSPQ
T9 sequence (Q07011 24-186 limits assumed): as above
T11 sequence (Q07011 other isoform, or with tags, fused parts or gaps limits assumed): as the sequence (P25942 other isoform, or with tags, fused parts or gaps) above, with L4P, S19N, K50R, I66T, S67P, Y69F, E75G, A149V counted along it
T12 sequence (Q07011 24-255): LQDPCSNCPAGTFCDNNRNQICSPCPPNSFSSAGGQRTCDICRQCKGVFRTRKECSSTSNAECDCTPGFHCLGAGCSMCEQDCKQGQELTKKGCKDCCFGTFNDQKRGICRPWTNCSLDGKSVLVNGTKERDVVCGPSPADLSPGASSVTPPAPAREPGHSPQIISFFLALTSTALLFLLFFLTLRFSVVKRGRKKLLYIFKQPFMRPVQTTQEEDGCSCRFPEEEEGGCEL
T13 sequence (Q07011 24-186 limits assumed): as the sequence (Q07011 24-186 limits assumed) above

| Binder | binding result [1] | binding result [2] | Ratio, cyno:human [16] | MFI/isotype control normalized to full-length human CD137 [17] | MFI/isotype control normalized to full-length human CD137 [18] | MFI/isotype control normalized to full-length human CD137 [19] | MFI/isotype control normalized to full-length human CD137 [20] | MFI/isotype control normalized to full-length human CD137 [21] | MFI/isotype control normalized to full-length human CD137 [22] | EC50 [24] [µg/mL] | EC50 [25] [nM] | EC50 [26] [µg/mL] | Kd [27] [nM] | koff [27] [s⁻¹] | kon [27] [M⁻¹ s⁻¹] | MFI/isotype control normalized to full-length human CD137 [29] | further results |
| --- | --- | --- | --- | --- | --- | --- | --- | --- | --- | --- | --- | --- | --- | --- | --- | --- | --- |
| B1 | no binding (tested: 10 µg/ml) | no binding (tested: 10 µg/ml) |  |  |  |  |  |  |  |  |  |  |  |  |  |  | MFI/isotype control normalized to full-length human CD137 [3]: 0.13; MFI/isotype control normalized to full-length human CD137 [4]: 0.14; MFI/isotype control normalized to full-length human CD137 [5]: 0.15; MFI/isotype control normalized to full-length human CD137 [6]: 0.15; MFI/isotype control normalized to full-length human CD137 [7]: 0.45; MFI/isotype control normalized to full-length human CD137 [8]: 0.15; MFI/isotype control normalized to full-length human CD137 [9]: 0.32; MFI/isotype control normalized to full-length human CD137 [10]: 0.06; MFI/isotype control normalized to full-length human CD137 [11]: 0.26; MFI/isotype control normalized to full-length human CD137 [12]: 0.41; MFI/isotype control normalized to full-length human CD137 [13]: 0.3; MFI/isotype control normalized to full-length human CD137 [14]: 0.07 |
| B2 |  |  | 0.67 | 0.06 | 0.05 | 0.51 | 0.65 | 0.26 | 0.05 | 0.16 to 0.27 | 0.41 | 0.11 to 0.17 | 0.976 | 0.00066 | 676000 | 1 | EC50 [15]: 0.4 nM; EC50 [23]: ~0.06 µg/mL; EC50 [2]: > 10 µg/mL; EC50 [28]: > 40 nM |
| B3 | no binding (tested: 10 µg/ml) | no binding (tested: 10 µg/ml) | 0.77 | 1.2 | 0.11 | 1.01 | 1.24 | 0.12 | 0.67 | 0.11 to 0.19 | 0.35 | 0.086 to 0.15 | 0.107 | 0.00011 | 1.02e+06 | 1 | Kd (biotinylated CD137 [30]): 0.156 nM; Kd (biotinylated CD137 [31]): 0.156 nM |
